Measurements published in patent US20210238298A1 (ALLIGATOR BIOSCIENCE, published 2021).
Positions count from the first letter of the chain named.

B1: anti-OX40 antibody 1168/1135 (antibody, V domains shown)
VH: EVQLLESGGGLVQPGGSLRLSCAASGFTFSGSSMSWVRQAPGKGLEWVSSISYYGGYTYYADSVKGRFTISRDNSKNTLYLQMNSLRAEDTAVYYCARYFPHYYFDYWGQGTLVTVSS
VL: not shown
notes: Tested as IgG
B2: anti-OX40 antibody 1164/1135 (antibody, V domains shown)
VH: B1 VH with S30Y, S35Y, S50G, S52Y, Y53S, Y54S, Y59S, Y99G, F100V, Y103G
VL: not shown
notes: Tested as IgG
B3: anti-OX40 antibody 1542/1135 (antibody, V domains shown)
VH: EVQLLESGGGLVQPGGSLRLSCAASGFTFGSSSMYWVRQAPGKGLEWVSGIGYYSYSTSYADSVKGRFTISRDNSKNTLYLQMNSLRAEDTAVYYCARGYPHHYFDYWGQGTLVTVSS
VL: not shown
notes: Tested as IgG
B4: anti-OX40 antibody 1482/1483 (antibody, V domains shown)
VH: EVQLLESGGGLVQPGGSLRLSCAASGFTFSSYAMSWVRQAPGKGLEWVSYISYYSGYTYYADSVKGRFTISRDNSKNTLYLQMNSLRAEDTAVYYCARGYGYLDYWGQGTLVTVSS
VL: DIQMTQSPSSLSASVGDRVTITCRASQSISSYLNWYQQKPGKAPKLLIYAASSLQSGVPSRFSGSGSGTDFTLTISSLQPEDFATYYCQQYGSLLTFGQGTKLEIK
notes: Tested as IgG
B5: anti-OX40 antibody 1524/1525 (antibody, V domains shown)
VH: EVQLLESGGGLVQPGGSLRLSCAASGFTFGSYYMGWVRQAPGKGLEWVSSIGSYYGYTYYADSVKGRFTISRDNSKNTLYLQMNSLRAEDTAVYYCARHDYGALDYWGQGTLVTVSS
VL: DIQMTQSPSSLSASVGDRVTITCRASQSISSYLNWYQQKPGKAPKLLIYAASSLQSGVPSRFSGSGSGTDFTLTISSLQPEDFATYYCQQYGPSGLFTFGQGTKLEIK
notes: Tested as IgG
B6: anti-OX40 antibody 1526/1527 (antibody, V domains shown)
VH: EVQLLESGGGLVQPGGSLRLSCAASGFTFSGYSMYWVRQAPGKGLEWVSGIGYSGYGTYYADSVKGRFTISRDNSKNTLYLQMNSLRAEDTAVYYCARYYFHDYAAYSLDYWGQGTLVTVSS
VL: B5 VL with P93S, S94D, G95S, F97L
notes: Tested as IgG

What follows are binders tested against T1, murine OX40 (murine, UniProt P47741 20-211, limits assumed) (assay: ELISA).
T1 sequence (looked up): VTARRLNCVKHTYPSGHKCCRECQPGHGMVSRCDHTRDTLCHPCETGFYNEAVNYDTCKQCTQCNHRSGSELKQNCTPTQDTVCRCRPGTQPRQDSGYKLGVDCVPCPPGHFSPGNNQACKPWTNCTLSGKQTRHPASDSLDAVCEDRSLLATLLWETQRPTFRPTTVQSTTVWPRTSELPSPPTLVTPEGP

Question: Does B1 bind?
Answer: Result: no binding

Question: Does B2 bind?
Answer: Result: no binding

Question: Does B3 bind?
Answer: Result: no binding

Question: Does B4 bind?
Answer: Result: no binding

Question: Does B5 bind?
Answer: Result: no binding

Question: Does B6 bind?
Answer: Result: no binding

These binders were tested against T2, CD40 (Ancell) (UniProt P25942 21-193) (assay: ELISA).
T2 construct: also called CD40-Fc (Ancell #504-820); not shown: Fc part, not described
T2 sequence (P25942 21-193 limits assumed): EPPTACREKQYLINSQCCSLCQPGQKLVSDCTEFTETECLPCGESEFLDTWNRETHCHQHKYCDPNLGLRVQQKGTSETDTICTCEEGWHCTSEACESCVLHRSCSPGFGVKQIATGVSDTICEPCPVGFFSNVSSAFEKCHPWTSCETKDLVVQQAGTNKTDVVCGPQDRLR

Question: Does B1 bind?
Answer: Result: no binding

Question: Does B2 bind?
Answer: Result: no binding

Question: Does B3 bind?
Answer: Result: no binding

Question: Does B4 bind?
Answer: Result: no binding

Question: Does B5 bind?
Answer: Result: no binding

Question: Does B6 bind?
Answer: Result: no binding

Each binder was assayed against T3, recombinant human CD137-Fc (R&D #838-4B) (human, UniProt Q07011 24-186) (assay: ELISA).
T3 construct: Bought; also called Human CD137 (R&D systems); CD137 (R&D Systems); not shown: Fc part, not described
T3 sequence (Q07011 24-186 limits assumed): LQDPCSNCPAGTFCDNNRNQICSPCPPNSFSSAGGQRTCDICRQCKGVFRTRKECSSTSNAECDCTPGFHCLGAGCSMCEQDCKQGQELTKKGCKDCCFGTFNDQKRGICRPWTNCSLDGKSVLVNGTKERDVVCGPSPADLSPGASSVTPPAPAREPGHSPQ

Question: Does B1 bind?
Answer: Result: no binding

Question: Does B2 bind?
Answer: Result: no binding

Question: Does B3 bind?
Answer: Result: no binding

Question: Does B4 bind?
Answer: Result: no binding

Question: Does B5 bind?
Answer: Result: no binding

Question: Does B6 bind?
Answer: Result: no binding

These binders were tested against T4, OX40 chimera 1544: human OX40 with mouse domains 1A, 1B and 2A (aa 30-81), on FreeStyle 293-F cells (human; mouse, UniProt P47741 26-77) (assay: flow cytometry, 293-F transfectants).
T4 construct: domain: 1A, 1B and 2A
T4 sequence: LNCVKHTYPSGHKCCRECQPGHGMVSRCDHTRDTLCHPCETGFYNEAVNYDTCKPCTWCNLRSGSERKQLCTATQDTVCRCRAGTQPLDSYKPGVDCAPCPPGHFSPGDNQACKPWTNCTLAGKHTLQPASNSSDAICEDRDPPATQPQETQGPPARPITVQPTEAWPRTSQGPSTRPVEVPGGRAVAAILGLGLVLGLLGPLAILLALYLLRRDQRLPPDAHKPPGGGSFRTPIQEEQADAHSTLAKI
Method: (§1) The mouse/human chimeras were transiently transfected into FreeStyle 293-F cells (Invitrogen), incubated 48 hours in FreeStyle 293 expression medium (Invitrogen) 37 C, 8% CO₂, 135 rpm. The transfected cells were incubated with human OX40 antibodies, human OX40L (hOX40L, RnD Systems), mouse OX40L (mOX40L, RnD Systems) and controls for 30 min 4° C. and then detected with a-huIgG-PE (Jackson Immunoresearch) 30 min 4° C. Cells were analyzed with FACS Verse (BD Biosciences). Binding to the different chimeric constructs were calculated as relative (mean fluorescence intensity) MFI compared to the binding of the isotype control.

Question: B1 was tested. Which “relative MFI vs isotype control” value did it give?
Answer: Its value is 13.2.

Question: B2 was tested. Which “relative MFI vs isotype control” value did it give?
Answer: Its value is 14.

Question: Which “relative MFI vs isotype control” value does the source give for B3 here?
Answer: Its value is 7.1.

Question: Which “relative MFI vs isotype control” value does the source give for B4 here?
Answer: The value was 8.4.

Question: With B5 as the binder, how does the “relative MFI vs isotype control” value read?
Answer: Its value is 1.5.

Question: Which “relative MFI vs isotype control” value does the source give for B6 here?
Answer: Its value is 1.1.

Each binder was assayed against T5, OX40 chimera 1549: human OX40 with mouse domains 1A and 4B and non-annotated extracellular region (aa 30-65 … (human; mouse, UniProt P47741 26-61; P47741 125-211) (assay: flow cytometry, 293-F transfectants).
T5 construct: domain: 1A;domain: 4B and non-annotated extracellular region; Limits derived as for 1544
T5 sequence: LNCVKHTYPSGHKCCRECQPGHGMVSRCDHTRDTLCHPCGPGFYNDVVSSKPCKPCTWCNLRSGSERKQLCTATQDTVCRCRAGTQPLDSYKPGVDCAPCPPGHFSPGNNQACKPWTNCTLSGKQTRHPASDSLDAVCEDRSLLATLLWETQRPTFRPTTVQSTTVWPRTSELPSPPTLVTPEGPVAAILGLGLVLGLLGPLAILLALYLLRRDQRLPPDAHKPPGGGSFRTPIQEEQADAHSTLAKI
Method: as §1

Question: With B3 as the binder, how does the “relative MFI vs isotype control” value read?
Answer: Its value is 13.

Question: Which “relative MFI vs isotype control” value does the source give for B4 here?
Answer: The value was 8.7.

Question: Which “relative MFI vs isotype control” value does the source give for B5 here?
Answer: Its value is 11.2.

Question: B6 was tested. Which “relative MFI vs isotype control” value did it give?
Answer: The value was 8.5.

These binders were tested against T6, construct 84: full length OX40 sequence, on FreeStyle 293-F cells (human, UniProt P43489 29-277) (assay: flow cytometry, 293-F transfectants).
T6 sequence: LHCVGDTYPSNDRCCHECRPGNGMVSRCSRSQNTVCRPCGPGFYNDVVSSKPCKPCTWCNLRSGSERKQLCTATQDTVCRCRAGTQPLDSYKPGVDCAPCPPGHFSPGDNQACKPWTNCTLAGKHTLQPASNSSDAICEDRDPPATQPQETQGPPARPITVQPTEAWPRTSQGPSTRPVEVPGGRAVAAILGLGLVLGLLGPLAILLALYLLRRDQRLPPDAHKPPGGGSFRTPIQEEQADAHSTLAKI
Method: as §1

Question: Which “relative MFI vs isotype control” value does the source give for B1 here?
Answer: Its value is 29.6.

Question: With B2 as the binder, how does the “relative MFI vs isotype control” value read?
Answer: Its value is 27.5.

Question: How did the “relative MFI vs isotype control” value turn out when B3 was run?
Answer: Its value is 29.4.

Question: With B4 as the binder, how does the “relative MFI vs isotype control” value read?
Answer: Its value is 24.9.

Question: B5 was tested. Which “relative MFI vs isotype control” value did it give?
Answer: Its value is 31.4.

Question: For B6, which “relative MFI vs isotype control” value is on record?
Answer: Its value is 21.4.

Each binder was assayed against extracellular part of OX40 from Macaca mulatta fused to the transmembrane and intracellular part of hCD40, on … (Macaca mulatta; human, UniProt A0A5F7ZKD5 21-541; P25942 194-277) (assay: flow cytometry, macOX40-HEK cells; 95% confidence interval).
Method: (§2) For the assay, the transfected cells were incubated with the test antibodies and controls for 30 min at 4° C. and then detected with a-huIgG-PE (Jackson Immunoresearch) 30 min 4° C. Cells were analyzed by flow cytometry with FACS Verse (BD Biosciences).

Question: For B1, which EC50 is on record?
Answer: Its EC50 is 0.0905 to 0.194 µg/mL.

Question: B3 was tested. Which EC50 did it give?
Answer: The EC50 was 0.722 to 1.41 µg/mL.

Question: How did the EC50 turn out when B4 was run?
Answer: Its EC50 is 0.157 to 0.312 µg/mL.

Question: With B6 as the binder, how does the EC50 read?
Answer: Its EC50 is 0.292 to 0.589 µg/mL.

What follows are binders tested against T7, extracellular part of human OX40 fused to the transmembrane and intracellular part of hCD40, on CHO cells (human, UniProt P25942 194-277, limits assumed) (assay: flow cytometry, cells with human OX40; 95% confidence interval).
T7 construct: domain: transmembrane and intracellular part; also called hOX40 overexpressed on CHO cells; huOX40 (CHO)
T7 sequence: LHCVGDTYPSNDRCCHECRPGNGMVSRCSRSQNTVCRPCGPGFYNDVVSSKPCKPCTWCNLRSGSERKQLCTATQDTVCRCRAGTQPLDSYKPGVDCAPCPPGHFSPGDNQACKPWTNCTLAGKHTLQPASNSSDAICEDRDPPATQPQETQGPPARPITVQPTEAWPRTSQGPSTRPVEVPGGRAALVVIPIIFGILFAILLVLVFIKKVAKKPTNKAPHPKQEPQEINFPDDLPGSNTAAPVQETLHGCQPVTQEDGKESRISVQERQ
Method: as §2

Question: Which EC50 does the source give for B1 here?
Answer: The EC50 was 0.0636 to 0.131 µg/mL.

Question: B3 was tested. Which EC50 did it give?
Answer: Its EC50 is 0.322 to 0.552 µg/mL.

Question: Which EC50 does the source give for B4 here?
Answer: Its EC50 is 0.082 to 0.182 µg/mL.

Question: B6 was tested. Which EC50 did it give?
Answer: Its EC50 is 0.172 to 0.429 µg/mL.

Each binder was assayed against T7, extracellular part of human OX40 fused … (assay: flow cytometry, CHO cells with human OX40 (extracellular part on hCD40 transmembrane and intracellular part), anti-huIgG-PE).
Method: as §2, with “The extracellular part of human OX40 was fused to the transmembrane and intracellular part of hCD40 and cloned into pcDNA3.0. The vector was subsequently stably transfected into CHO cells. […] For” for “For”

Question: How did the “EC50 (read off the curve)” value turn out when B2 was run?
Answer: The value was ~0.01 µg/mL.

Question: Which “EC50 (read off the curve)” value does the source give for B5 here?
Answer: The value was ~0.05 µg/mL.
